Biological target: Purified full-length LRRK2 (UniProt Q5S007)
Assay: mass photometry; LRRK2 at 150 nM or 200 nM incubated with constrained peptide 1:7.5 for 30 min at 30 °C; 10 uL added to 10 uL buffer (50 mM HEPES, 150 mM NaCl, 5 mM MgCl2, 1 mM DTT, 0.1 mM GDP, 1% glycerol); Refeyn TwoMP; percentage of dimer from molecular weight
Details: remark: other sources report otherwise

Purified full-length LRRK2, Q5S007 1-2527
stoichiometry N: 2

From PMC10251477, “Doubly Constrained C-terminal of Roc (COR) Domain-Derived Peptides Inhibit Leucine-Rich Repeat Kinase 2 (LRRK2) Dimerization” (ACS Chemical Neuroscience, 2023)
